The values that follow come from paper PMC8383114.

The target of the assay is C18 (a CaM binding peptide from CaMKIIα). The experiment in a line: FRET or BRET.

In turn, “WT-CaM of the BRET construct (Venus, CaM, target peptide, RLuc8) (from UniProt P0DP26 1-149) (natural protein)” yielded a Kd from the Ca2+ titration curve of the BRET construct of 3.92 µM.
